Drawing on article PMC7556403, this text covers Kd for one sequence.

Data set [1] addresses MBP-APO1 mXT (aggregated form) M46A;R48S;I80T;W121A;L173A;W199A;F205A;del1-14 (human) (UniProt P41238). Nature of the data set: EMSA. Particulars: no A1CF; aggregated form; weaker than WT; 50 nM nucleic acid, 20 mM HEPES, 50 mM NaCl, 5 mM DTT, 10% glycerol (0.4 U RNase inhibitor for RNA), pH not stated for EMSA (HEPES pH 7.5 in protein buffers) ….
For data set [2], the target named is MBP-APO1 mXT (dimeric form) M46A;R48S;I80T;W121A;L173A;W199A;F205A;del1-14 (human) (UniProt P41238). Kind of data set: EMSA. Particulars: no A1CF; dimeric form; 50 nM nucleic acid, 20 mM HEPES, 50 mM NaCl, 5 mM DTT, 10% glycerol (0.4 U RNase inhibitor for RNA), pH not stated for EMSA (HEPES pH 7.5 in protein buffers) …. On the technique in general: Mobility shift assays separate free from complexed probe on a gel.

In general, Kd refers to the equilibrium constant for the complex coming apart. “GGAUAUAUGAUACAAUUUGAUCAGUAUAUUAAAGAUAGUUAUGAUUUACAUGAUU [APOB RNA 55 nt]”: the Kd was 460 nM in data set [1] and 140 nM in data set [2].
